The values below come from patent US20260263614A1, “ANTIBODY DRUG CONJUGATES THAT BIND CDCP1 AND USES THEREOF” (Pheon Therapeutics Ltd, priority 2022, published 2026).

The subject of test [1] is HexA and MS1 DNA fragments. Nature of the test: DNA footprinting. Type of test: binding. The procedure: Footprinting reactions were performed as using previously described methods using the DNA fragments HexA and HexB, which together contain all 64 symmetrical hexanucleotide sequences, and MS1 that contains all possible […] tetranucleotide sequences. The DNA fragments were obtained by cutting the parent plasmids with HindIII and SacI (for HexA and MS1) or EcoRI and PstI (for HexB), and were labelled at the 3′-end of the HindIII or EcoRI sites with [α-^32P]dATP using reverse transcriptase or exo-Klenow fragment. After gel purification, the radiolabelled DNA was dissolved in 10 mM Tris-HCl pH 7.5 containing 0.1 mM EDTA, at a concentration of about 10 c.p.s per μL as determined on a hand held Geiger counter. 1.5 μL of radiolabelled DNA was mixed with 1.5 μL ligand that had been freshly diluted in 10 mM Tris-HCl pH 7.5, containing 10 mM NaCl. The complexes were left to equilibrate for at least 12 hours before digesting with 2 μL DNase I (final concentration about 0.01 units/mL). The reactions were stopped after 1 minute by adding 4 μL of formamide containing 10 mM EDTA and bromophenol blue (0.1% w/v). The samples were then heated at 100° C. for 3 minutes before loading onto 8% denaturing polyacrylamide gels containing 8 M urea. Gels were fixed in 10% acetic acid, transferred to 3 MM paper, dried and exposed to a phosphor screen overnight, before analysing with a Typhoon phosphorimager
The DNA sequence selectivity profile of the molecules was investigated using a modification of a previously established DNA footprinting assay. Following an overnight incubation of the ligand-DNA complexes, the mixture was mixed with strand separation buffer containing 10 mM EDTA, 10 mM NaOH, 0.1% bromophenol blue, 80% formamide and incubated at 100° C. for 3 min. The mixture was then immediately cooled on ice and run on an 8% denaturing gel. […] The possible adducts formed within the HexA sequences are shown in FIGS. 20 and 21, respectively.

The target in test [2] is T1, huCDCP1(F30-T667 Q525)-8×His_T3 (human, UniProt Q9H5V8 30-667).
T1 construct: The construct name gives the limits F30-T667 and Q525; also called recombinant CDCP1 ECD; CDCP1 ECD
Nature of the test: SPR, huCDCP1(F30-T667 Q525)-8×His_T3 as analyte; mAb lot T14. A general note: SPR reads the build-up and loss of mass on a sensor chip optically.

T1 sequence (Q9H5V8 other isoform, or with tags, fused parts or gaps): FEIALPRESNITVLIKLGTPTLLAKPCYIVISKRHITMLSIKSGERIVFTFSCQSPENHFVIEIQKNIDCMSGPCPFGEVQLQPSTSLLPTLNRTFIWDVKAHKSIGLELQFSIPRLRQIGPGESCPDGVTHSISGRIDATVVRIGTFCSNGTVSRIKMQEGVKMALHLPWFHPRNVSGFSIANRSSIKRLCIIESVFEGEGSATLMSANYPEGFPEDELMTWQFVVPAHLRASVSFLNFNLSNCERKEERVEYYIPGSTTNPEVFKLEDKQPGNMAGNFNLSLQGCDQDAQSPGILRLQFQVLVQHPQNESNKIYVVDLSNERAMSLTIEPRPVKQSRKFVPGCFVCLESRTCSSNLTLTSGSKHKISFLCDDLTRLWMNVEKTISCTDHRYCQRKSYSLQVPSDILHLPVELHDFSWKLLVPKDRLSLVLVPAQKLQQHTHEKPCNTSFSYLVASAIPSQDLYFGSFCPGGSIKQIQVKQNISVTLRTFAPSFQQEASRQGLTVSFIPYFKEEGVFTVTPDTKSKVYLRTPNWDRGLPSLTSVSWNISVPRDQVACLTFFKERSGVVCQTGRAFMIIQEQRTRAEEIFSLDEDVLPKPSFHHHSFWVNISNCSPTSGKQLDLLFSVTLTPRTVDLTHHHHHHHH

Turning to `C=CCOC(=O)N1c2cc(OCCCC(=O)Nc3cc(C(=O)Nc4ccc(NC(=O)C(F)(F)F)cc4)n(C)c3)c(OC)cc2C(=O)N2CCCC[C@H]2C1OC1CCCCO1` (stereo partly drawn) [Compound 17, Allyl (6aS)-2-methoxy-3-(4-((1-methyl-5-((4-(2,2,2-trifluoroacetamido)phenyl)carbamoyl)-1H-pyrrol-3-yl)amino)-4-oxobutoxy)-12-oxo-6-((tetrahydro-2H-pyran-2-yl)oxy)-6,6a,7,8,9,10-hexahydrobenzo[e]pyrido[1,2-a][1,4]diazepine-5(12H)-carboxylate], the “DNA-binding site (X any base, W adenine or thymine)” value in test [1] is “XGXWWWW”.

B1: ADC2 (CDCP1 mAb conjugated to compound 20, DAR of 4) (antibody, IgG1, V domains shown)
VH: EVQLLESGGGLVQPGGSLRLSCAASGFTFSNYAMNWVRQAPGKGLEWVSAISGGGGSTYYADSVKGRFTISRDNSKNTLYLQMNSLRAEDTAVYYCAKESITMVRGVMDYYGMDVWGQGTTVTVSS
VL: DIQLTQSPSFLSASVGDRVTITCRASQGISSYLAWYQQKPGKAPKLLIYAASTLQGGVPSRFSGSGSGTEFTLTISSLQPEDFATYYCQHLNRFPRTFGQGTKVEIK
modifications: compound 20 (maleimide-Val-Ala-PDD linker-payload) conjugated stochastically to reduced cysteines of the IgG1, average DAR 4.2; sites not stated
Take B1: in test [2], binding was put at a Kd of 0.635 nM; the koff (in general, the rate constant with which the complex falls apart) was 0.000374 s⁻¹; the kon – broadly, a measure of how fast the partners come together – amounted to 589000 M⁻¹ s⁻¹.

B2: ADC4 (CDCP1 mAb conjugated to compound 30, DAR of 4) (antibody, IgG1, V domains shown)
VH: EVQLLESGGGLVQPGGSLRLSCAASGFTFSNYAMNWVRQAPGKGLEWVSAISGGGGSTYYADSVKGRFTISRDNSKNTLYLQMNSLRAEDTAVYYCAKESITMVRGVMDYYGMDVWGQGTTVTVSS
VL: DIQLTQSPSFLSASVGDRVTITCRASQGISSYLAWYQQKPGKAPKLLIYAASTLQGGVPSRFSGSGSGTEFTLTISSLQPEDFATYYCQHLNRFPRTFGQGTKVEIK
modifications: compound 30 (Mal-amido-PEG8-Val-Ala-exatecan) conjugated stochastically to reduced cysteines of the IgG1, average DAR 4; sites not stated
In the case of B2, in test [2], the Kd (commonly the free concentration of one partner at which half of the binding sites on the other are occupied at equilibrium, for simple one-to-one binding) is 0.604 nM; the koff was determined as 0.000401 s⁻¹; the kon is 663000 M⁻¹ s⁻¹.
